Test [1] deals with MRSA-M2. As to the kind of experiment: Rabbit tibial osteomyelitis model: vaccination, MRSA challenge, then vancomycin therapy. The settings on record: rabbits, 75 μg each antigen per injection.
Test [2] deals with MRSA-M2. As to the kind of experiment: Rabbit tibial osteomyelitis (biofilm) infection model: vaccination, then intratibial MRSA-M2 challenge. The format is in vivo, Staphylococcus aureus. As for the experimental part:
Animals were divided at random into groups.
Production of osteomyelitis. […] The infection was allowed to progress for 14 days.
Analysis of vaccine efficacy. Vaccine efficacy was evaluated in three ways.
Among these antigens, autolysin (AtlA) was one of the most immunoreactive. Because of its reported role in biofilm formation (31, 32) and its up-regulation during early biofilm growth (when an immune response could theoretically eradicate the biofilm), autolysin was tested as a vaccine. Purified recombinant glucosaminidase (one of the two protein components of AtlA) was injected into rabbits (three doses of 10 μg each, 10 days apart) and then animals were challenged using a tibial osteomyelitis infection.
Antibodies elicited by a single antigen vaccine may not provide adequate immunological recognition of the biofilm in vivo to enable complete microbial clearance. […] Therefore, the aforementioned antigens were tested as a multi-component vaccine. To this end, animals were vaccinated with 10 μg of each of four antigens: glucosaminidase, SA0688 (an ABC transporter lipoprotein), SA0037 (a conserved hypothetical protein), and SA0486 (a hypothetical lipoprotein), following the same dosing schedule as above. […] As well, vaccinated animals trended to lower CFU counts and an 88% reduction in bacterial loads in the tibia (FIG. 3A—quadrivalent). However, this reduction in bacterial populations was not statistically significant. Two doses of the combined vaccine at 15 μg each per dose were also studied, wherein increasing the prime and boost may lead to a more robust initial immune response when the biofilm is immature (and thus, enable clearance by the immune response).

Marks after values point to notes of the source that are not given here.

Turning to `CN[C@H](CC(C)C)C(=O)N[C@H]1C(=O)N[C@@H](CC(N)=O)C(=O)N[C@H]2C(=O)N[C@H]3C(=O)N[C@H](C(=O)N[C@H](C(=O)O)c4cc(O)cc(O)c4-c4cc3ccc4O)[C@H](O)c3ccc(c(Cl)c3)Oc3cc2cc(c3O[C@@H]2O[C@H](CO)[C@@H](O)[C@H](O)[C@H]2O[C@H]2C[C@](C)(N)[C@H](O)[C@H](C)O2)Oc2ccc(cc2Cl)[C@H]1O` [PBS + vancomycin, vancomycin], the “Percentage showing clinical signs of infection” value in the test on MRSA-M2 [1] (vancomycin 40 mg/kg twice daily for ten days) stood at 100%. Further, the Mean radiological score in the test on MRSA-M2 [1] (vancomycin 40 mg/kg twice daily for ten days from 14 days after challenge, score 0 to 4+) is on record as 2.1.

B1: Glucosaminidase: Purified recombinant S. aureus glucosaminidase (SEQ ID NO:1), one of the two protein components of autolysin AtlA (protein, listed as Staphylococcus aureus)
chain: MAKKFNYKLPSMVALTLVGSAVTAHQVQAAETTQDQTTNKNVLDSNKVKATTEQAKAEVKNPTQNISGTQVYQDPAIVQPKAANKTGNAQVNQKVDTTQVNGDTRATQSTTSNNAKPVTKSTNTTAPKTNNNVTSAGYSLVDDEDDNSENQINPELIKSAAKPAALETQYKAAAPKATPVAPKAKTEATPKVTTFSASAQPRSAAAAPKTSLPKYKPQVNSSINDYIRKNNLKAPKIEEDYTSYFPKYAYRNGVGRPEGIVVHDTANDRSTINGEISYMKNNYQNAFVHAFVDGDRIIETAPTDYLSWGVGAVGNPRFINVEIVHTHDYASFARSMNNYADYAATQLQYYGLKPDSAEYDGNGTVWTHYAVSKYLGGTDHADPHGYLRSHNYSYDQLYDLINEKYLIKMGKVAPWGTQSTTTPTTPSKPSTPSKPSTPSTGKLTVAANNGVAQIKPTNSGLYTTVYDKTGKATNEVQKTFAVSKTATLGNQKFYLVQDYNSGNKFGWVKEGDVVYNTAKSPVNVNQSYSIKPGTKLYTVPWGTSKQVAGSVSGSGNQTFKASKQQQIDKSIYLYGSVNGKSGWVSKAYLVDTAKPTPTPTPKPSTPTTNNKLTVSSLNGVAQINAKNNGLFTTVYDKTGKPTKEVQKTFAVTKEASLGGNKFYLVKDYNSPTLIGWVKQGDVIYNNAKSPVNVMQTYTVKPGTKLYSVPWGTYKQEAGAVSGTGNQTFKATKQQQIDKSIYLYGTVNGKSGWISKAYLAVPAAPKKAVAQPKTAVKAYAVTKPQTTQTVSKIAQVKPNNTGIRASVYEKTAKNGAKYADRTFYVTKERAHGNETYVLLNNTSHNIPLGWFNVKDLNVQNLGKEVKTTQKYTVNRSNNGLSMVPWGTKNQVILTGNNIAQGTFNATKQVSVGKDVYLYGTINNRTGWVNSKDLTAPTAVKPTTSAAKDYNYTYVIKNGNGYYYVTPNSDTAKYSLKAFNEQPFAVVKEQVINGQTWYYGKLSNGKLAWIKSTDLAKELIKYNQIGMTLNQVAQIQAGLQYKPQVQRVPGKWTDANFNDVKHAMDTKRLAQDPALKYQFLRLDQPQNISIDKINQFLKGKGVLENQGAAFNKAAQMYGINEVYLISHALLETGNGTSQLAKGADVVNNKVVTNSNTKYHNVFGIAAYDNDPLREGIKYAKQAGWDTVSKAIVGGAKFIGNSYVKAGQNTLYKMRWNPAHPGTHQYATDVDWANINAKIIKGYYDKIGEVGKYFDIPQYK
For the molecule B1, the Mean radiological score in the test on MRSA-M2 [2] (New Zealand White rabbits, three i.m. doses of 10 μg (each antigen), 10 days apart, 14 days after intratibial MRSA, score 0 to 4+ (Table 2)) is 0.37*. Also, the Number cleared with MRSA-M2 [2] (rabbits cleared of infection, 4 glucosaminidase, 5 multi-component animals, three doses of 10 μg (each antigen)) was determined as 1. Moreover, the “% showing clinical signs of infection” value in the test on MRSA-M2 [2] (rabbits, three doses of 10 μg (each antigen), non-weight bearing on affected leg, 14 days after MRSA inoculation) is 0%. Further, the “bacteriological signs of infection compared to PBS-vaccinated controls” value in the test with MRSA-M2 [2] (rabbits, three doses of 10 μg each, 10 days apart) is given as “did not lead to significant differences”. The “Mean CFU/grams bone in affected tibias” value in the test with MRSA-M2 [2] (rabbits, three doses of 10 μg, FIG. 1, PBS controls 9.84×10^7) is on record as 3.6×10^7 CFU/grams bone.

The record behind these values is patent US20110177111A1, “[…] AGAINST STAPHYLOCOCCUS AUREUS BIOFILMS […] WALL-[…]” (UNIVERSITY OF MARYLAND, BALTIMORE, priority 2008, published 2011).
